Consider 1 protein from PMC5467530.

Substrate in the data set: O=c1[nH]cnc2c([C@@H]3O[C@H](COP(=O)(O)O)[C@@H](O)[C@H]3O)n[nH]c12
In words: pyruvate kinase / lactate dehydrogenase coupled assay, NADH oxidation by UV. Conditions: 2.5 mM L-aspartate, 0.125 mM GTP. Type of data set: biochemical, Streptomyces kaniharaensis.

B1: ForA (Streptomyces kaniharaensis) (protein)
chain: MLKAIVGLNWGDEGKGRMVDNLSAEADYTVRYHGGSNAGHTIHTDQGKFKLHSLPSSVLHPTVTGVLGPGMTVDVEGFLAEFEALREHGVTADRLLVADAASVCFPFHRDLDGAEEERLSDGRYGSTRRGISPAYGDRVMKKTLLVRELFDRENLPARLAAVLDWANERIVRIYGGAPLSLDEVTRWAADVAARLEPHVVDATALLGKALDDGATVIAEGQLGALKDLYYGIYPFTTSSTCLAGHAPVGIGVPWARVDRTIGVTKAFSSCVGAGPFVTEFDEERADRLRRQWGEYGSTTNRPRRLGAFDAVATRYGVRVQGADEVAITNLDQLSGTGELDLCVAYERAGRTVREFSPRPAELAASTPVHETLSGWDEDISGVRTYEQLPAGAREYVEAIQELLGVPVRHVSVGSHRDALIEIK
Regarding B1, the Km turned out to be 74 ± 25 µM and the turnover number (kcat) came to 18 ± 2 min⁻¹.
